# Assay results as given in publication PMC9009768 (PLoS Pathogens, 2022).
# B1: GST-WSNNP (natural protein)
# chain: MATKGTKRSYEQMETDGERQNATEIRASVGKMIGGIGRFYIQMCTELKLSDYEGRLIQNSLTIERMVLSAFDERRNKYLEEHPSAGKDPKKTGGPIYRRVDGKWMRELILYDKEEIRRIWRQANNGDDATAGLTHMMIWHSNLNDATYQRTRALVRTGMDPRMCSLMQGSTLPRRSGAAGAAVKGVGTMVMELIRMIKRGINDRNFWRGENGRRTRIAYERMCNILKGKFQTAAQRAMVDQVRESRNPGNAEFEDLIFLARSALILRGSVAHKSCLPACVYGPAVASGYDFEREGYSLVGIDPFRLLQNSQVYSLIRPNENPAHKSQLVWMACHSAAFEDLRVSSFIRGTKVVPRGKLSTRGVQIASNENMETMESSTLELRSRYWAIRTRSGGNTNQQRASSGQISIQPTFSVQRNLPFDRPTIMAAFTGNTEGRTSDMRTEIIRLMESARPEDVSFQGRGVFELSDEKAASPIVPSFDMSNEGSYFFGDNAEEYDN
# Biological target: T1, His-tagged PIAS1 (human, UniProt O75925 1-651)
# T1 construct: also called His-PIAS1; purified PIAS1
# Experiment: pull-down
# Conditions: both partners purified
# T1 sequence (O75925 whole entry): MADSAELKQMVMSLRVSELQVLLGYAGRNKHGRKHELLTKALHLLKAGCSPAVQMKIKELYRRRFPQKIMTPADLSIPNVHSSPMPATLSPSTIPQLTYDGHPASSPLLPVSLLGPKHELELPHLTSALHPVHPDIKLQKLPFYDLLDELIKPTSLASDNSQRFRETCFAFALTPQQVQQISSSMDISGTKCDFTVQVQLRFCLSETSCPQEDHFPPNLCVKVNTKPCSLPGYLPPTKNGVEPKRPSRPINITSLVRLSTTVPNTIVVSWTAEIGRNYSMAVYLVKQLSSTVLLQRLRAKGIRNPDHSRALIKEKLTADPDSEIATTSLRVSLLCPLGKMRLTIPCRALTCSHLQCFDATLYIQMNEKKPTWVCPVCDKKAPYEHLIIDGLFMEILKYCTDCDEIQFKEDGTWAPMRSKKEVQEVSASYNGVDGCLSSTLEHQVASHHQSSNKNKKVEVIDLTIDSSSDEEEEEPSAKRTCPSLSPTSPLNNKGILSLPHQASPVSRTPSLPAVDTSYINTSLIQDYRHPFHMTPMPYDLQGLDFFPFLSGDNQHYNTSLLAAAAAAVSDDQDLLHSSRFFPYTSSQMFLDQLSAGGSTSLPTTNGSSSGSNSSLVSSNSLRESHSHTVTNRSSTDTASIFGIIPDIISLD
binder,measurement,value
B1,binding result,binds
